Laboratory results published in the supplement of paper PMC10126150.
± gives the standard deviation of the averaged measurements.

test system: ATP; test: switch fluorescence ratio, 500 uM ATP over buffer (Cy3 cluster intensity, sum of 5 cycles each) (fold (ratio)); higher = stronger signal-on switching upon ATP binding; sequences stand for … in TCGTCGGCAGCGTCAGATGTGTATAAGAGACAGTTTTTTTTTTTTTTTTTTTTTTTTT…TC; details: aptamer strand: ATP DNA aptamer (quencher-CACCTGGGGGAGTATTGCGGAGGAAGG + anchor), 100 nM annealed; ATP concentration: 500 uM
Procedure, shortened: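 Switching-strand clusters labelled with Cy3 on a modified Illumina MiSeq flow-cell were annealed to 100 nM quencher-labelled ATP aptamer, imaged in selection buffer, and re-imaged after 15 min with 500 uM ATP at 22 °C. This was done over five cycles with NaOH stripping and re-annealing in between. The fluorescence ratio is summed target-cycle over summed buffer-cycle Cy3 intensity per cluster, averaged per switch-domain sequence, excluding clusters outside 100-1000 RFU.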
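Further: ATP exposure 15 min at 22 °C before imaging.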

| Sequence | switch fluorescence ratio |
| --- | --- |
| ATAACAGGTA | 1.009 ± 0.005 |
| GTATTTACAT | 0.9862 ± 0.0048 |
| AGGGCAGTGG | 0.9796 ± 0.0025 |
| GGCTTTACCT | 1.101 ± 0.0097 |
| TAGCGGGCCG | 1.01 ± 0.039 |
| CAGGGTTTGG | 1.01 ± 0.023 |
| AGAGTGGTTA | 0.9864 ± 0.0033 |
| CGCTCCGGAG | 1.18 ± 0.14 |
| ATTGCGGGCC | 1.02 ± 0.047 |
| GTGGCGGTG | 0.985 ± 0.014 |
| ACTAGGTATT | 1.03 ± 0.033 |
| TTCGGGCGCG | 0.952 ± 0.021 |
| CACTTCTGAA | 0.987 ± 0.017 |
| CGTTGATCAG | 0.976 ± 0.024 |
| TGGCTGGGCT | 1.03 ± 0.05 |
| CTAGGGGAGA | 1.018 ± 0.0038 |
| TTCGTGAACG | 1 ± 0.071 |
| TTAATTGGGG | 1.06 ± 0.1 |
| CGTTTTTTGT | 0.9843 ± 0.002 |
| TGGGGTAAGA | 1.02 ± 0.015 |
| TCACGCCTTT | 1.05 ± 0.033 |
| ATTTTACCTC | 1.05 ± 0.13 |
| TTGGTAAATG | 0.999 ± 0.012 |
| GCTCTTTTGG | 0.997 ± 0.019 |
| ACTAATTGA | 0.996 ± 0.027 |
| GGTTTTTGGC | 1.02 ± 0.048 |

| Sequence | switch fluorescence ratio |
| --- | --- |
| GGGGTATTGA | 1.03 ± 0.037 |
| GGAGAGATTT | 1.01 ± 0.034 |
| ACGTGTGGGC | 1.02 ± 0.017 |
| TCCAGGGCGG | 1.06 ± 0.022 |
| ACGATTTGGT | 1 ± 0.013 |
| GCCTCACCCG | 1.26 ± 0.016 |
| TTCCTTCT | 1.13 ± 0.11 |
| GTTGTGGGGG | 1.01 ± 0.049 |
| TGATTAATGA | 0.996 ± 0.034 |
| CACACAAATT | 1.18 ± 0.15 |
| GAAATCATGT | 0.977 ± 0.023 |
| TTACTGCTCG | 1.01 ± 0.03 |
| CTAGGTAAAC | 1.06 ± 0.012 |
| AAAAGTGGGT | 0.9942 ± 0.0081 |
| ACGTGTAAGC | 1.03 ± 0.035 |
| TAAAGTTCTG | 1.01 ± 0.023 |
| GGGGGATGAT | 0.9889 ± 0.007 |
| TAAAAACGGG | 1.05 ± 0.11 |
| CAGGACCTCG | 1.03 ± 0.024 |
| CCAATGGGGG | 0.982 ± 0.04 |
| TAATTTTATA | 0.9789 ± 0.0046 |
| AGGGGGTGCG | 0.988 ± 0.029 |
| AGATGGGGTT | 1.01 ± 0.028 |
| ATTTGACCAT | 1.13 ± 0.18 |
| GGGTTTTGTG | 1.01 ± 0.022 |
| ACCACGGTTG | 1.07 ± 0.023 |

| Sequence | switch fluorescence ratio |
| --- | --- |
| TATAGTGCTC | 0.986 ± 0.054 |
| TATAGGTCGA | 1.03 ± 0.011 |
| GGCGTAAGCT | 1.012 ± 0.0095 |
| CGTATATGGG | 0.995 ± 0.022 |
| CGATGGTTGA | 1 ± 0.042 |
| CTTTCAATGG | 1.07 ± 0.015 |
| TGAATCCTCG | 1.05 ± 0.012 |
| GACCGAGCGT | 1.1 ± 0.06 |
| AGGCACGGGG | 0.9932 ± 0.0087 |
| GAAGACGTTA | 1.04 ± 0.023 |
| GAAATTTAAG | 1.02 ± 0.035 |
| GGAGGAGAAT | 1 ± 0.014 |
| ACATTTGGGG | 1.03 ± 0.066 |
| GAATGCGGAA | 1.0339 ± 0.00078 |
| CGTAGTTTAT | 1.07 ± 0.022 |
| CTTTATGGTT | 0.99 ± 0.065 |
| CGAGGGGCAC | 0.997 ± 0.013 |
| GGTGGGGGAT | 1.01 ± 0.015 |
| GGATAACGTA | 1.01 ± 0.049 |
| CCATGGTTGT | 1.011 ± 0.005 |
| AAAGGTGCGG | 0.9931 ± 0.0063 |
| TAAATAGTAC | 1.07 ± 0.032 |
| ACATAGTTGG | 0.966 ± 0.024 |
| TTCATCCAGC | 1.13 ± 0.07 |
| TGGAAGGGG | 1.02 ± 0.015 |
| CACGGGGGTT | 1 ± 0.018 |

| Sequence | switch fluorescence ratio |
| --- | --- |
| ATGTAGCGAC | 1.44 ± 0.39 |
| GACGGAGACC | 1.11 ± 0.027 |
| GATGGATGAA | 1.016 ± 0.0033 |
| TGGGTTTGTC | 0.96 ± 0.049 |
| TTAAGGGATT | 0.993 ± 0.032 |
| AAGAACTAAA | 1.05 ± 0.081 |
| GTTATACATT | 1.02 ± 0.011 |
| ATGAGAGGGC | 1.054 ± 0.0092 |
| CGGTGGGCCG | 1.05 ± 0.025 |
| AGGTTGTCAA | 0.969 ± 0.028 |
| AGGGAGGGTA | 0.9889 ± 0.0098 |
| GCTGTATGAG | 0.985 ± 0.029 |
| GCCTAGGCGG | 1.01 ± 0.062 |
| CGCTATGTTT | 1.02 ± 0.019 |
| GAGTAAGGAC | 1.09 ± 0.061 |
| ATTTCTCTTG | 0.998 ± 0.025 |
| TCGTGTTTTC | 1.03 ± 0.083 |
| TTTAATGAGT | 1.02 ± 0.024 |
| TCTAGTTTAT | 0.987 ± 0.033 |
| TTTTTTCTG | 1.04 ± 0.097 |
| CGAGGCCTCG | 0.994 ± 0.038 |
| GGTTCGAAGT | 1.01 ± 0.048 |
| AGGGCGCGTG | 0.995 ± 0.05 |
| GCGATGGGTC | 1.06 ± 0.0091 |
| GCTTTTAGCC | 0.991 ± 0.043 |
| ATTGGGAAGG | 0.965 ± 0.039 |

| Sequence | switch fluorescence ratio |
| --- | --- |
| TAATATAGGT | 1.018 ± 0.0097 |
| TCGTTGGGAT | 0.986 ± 0.053 |
| TTACAGCTAG | 1.01 ± 0.056 |
| AATTATTTTA | 1.022 ± 0.0018 |
| GGTGGGTAAT | 0.983 ± 0.015 |
| GAATAGGGCC | 1.01 ± 0.028 |
| CCACAGTAAT | 4.75 ± 0.34 |
| AACTCGTTCT | 1.01 ± 0.011 |
| TTTTTGGACC | 1.1 ± 0.22 |
| GCCTTAGCTC | 1.04 ± 0.015 |
| AAAGGGACGG | 0.9829 ± 0.0091 |
| CTTAGGCGGG | 1 ± 0.059 |
| TAGCGAAACT | 1.14 ± 0.032 |
| ATGTGCAGCG | 1.025 ± 0.0049 |
| CGCCTTTGTG | 1 ± 0.019 |
| TGGGGACCCT | 0.991 ± 0.014 |
| GGTGTCGTG | 0.98 ± 0.024 |
| GCGTCCGGGA | 1.21 ± 0.092 |
| TTTAGTGTAA | 0.966 ± 0.019 |
| GAGGGGATGT | 0.978 ± 0.026 |
| AAAAGCGATC | 1.14 ± 0.038 |
| TTGTTGAGAA | 0.995 ± 0.056 |
| TGTTCTATAT | 1.01 ± 0.05 |
| GGCCCGGGGA | 1.02 ± 0.042 |
| CGGGTGGTTA | 1.01 ± 0.022 |
| TCTGATGAAT | 1.02 ± 0.034 |

| Sequence | switch fluorescence ratio |
| --- | --- |
| CAGTAAATGT | 0.984 ± 0.054 |
| TGTAATGGGT | 1 ± 0.029 |
| CCATGCGATG | 1.21 ± 0.1 |
| CCTTAAGTGT | 1.04 ± 0.041 |
| GAGTGGACGG | 0.998 ± 0.018 |
| TACAAGGGTA | 1.01 ± 0.06 |
| TTAATGGGGT | 1 ± 0.039 |
| GACTCGGGCG | 1.014 ± 0.0082 |
| TCGTCGAACG | 0.988 ± 0.04 |
| TAATTTAAGT | 1.01 ± 0.028 |
| ACTTGTGAAG | 1.0247 ± 0.00063 |
| ATTGTTTTAG | 1.01 ± 0.025 |
| TTAAGAATGC | 1.07 ± 0.12 |
| TTCAGGCTGT | 0.9811 ± 0.0054 |
| TCGGAGTTAG | 1.04 ± 0.022 |
| GGGCATAGAT | 1.03 ± 0.05 |
| AGTGTAATGC | 1.15 ± 0.022 |
| TTTAGGATAA | 1.02 ± 0.013 |
| GGGGTCAGGT | 1 ± 0.024 |
| TTTTGTGTA | 0.994 ± 0.022 |
| GATAAAAGCG | 0.994 ± 0.0015 |
| TAGGAGTTAT | 1.01 ± 0.04 |
| TAAAGGAGAT | 1.03 ± 0.032 |
